Where no end group is shown, it is not given here. [ ]: non-standard residue; d: D form. 5‑Cl‑benzothiazol‑2‑yl side chain = not defined here; 6‑Cl‑benzothiazol‑2‑yl side chain = not defined here; Phe(3-CF3) = N[C@@H](Cc1cccc(C(F)(F)F)c1)C(=O)O; Phe(3,5-F2) = N[C@@H](Cc1cc(F)cc(F)c1)C(=O)O; Phe(3-CN) = N#Cc1cccc(C[C@H](N)C(=O)O)c1; Phe(3-Cl) = N[C@@H](Cc1cccc(Cl)c1)C(=O)O; Phe(4-Cl) = N[C@@H](Cc1ccc(Cl)cc1)C(=O)O; Phe(2-Cl) = N[C@@H](Cc1ccccc1Cl)C(=O)O; 2Nal = N[C@@H](Cc1ccc2ccccc2c1)C(=O)O; Phe(2-F) = N[C@@H](Cc1ccccc1F)C(=O)O; hPhe = N[C@@H](CCc1ccccc1)C(=O)O
B1: compound 13 (11 with Cl at the ortho position of the phenyl ring) (peptide)
chain: [Phe(2-Cl)]IKL
B2: analog of 11 containing an m-CF3 substituted phenyl (peptide)
chain: [Phe(3-CF3)]IKL
B3: analog of 11 with p-OH substitution of the phenyl (peptide)
peptide: YIKL
B4: UBC12 peptide 3 (peptide)
peptide: MIKLFSLKQQ
B5: compound 12 (tetrapeptide 9 with Met1 replaced by homophenylalanine) (peptide)
chain: [hPhe]IKL
B6: compound 15 (11 with Cl at the para position of the phenyl ring) (peptide)
chain: [Phe(4-Cl)]IKL
B7: UBC12 peptide 8 (peptide)
peptide: MIKLF
B8: analog of 11 with 3,5-di-F substitution of the phenyl (peptide)
chain: [Phe(3,5-F2)]IKL
B9: compound 11 (tetrapeptide 9 with Met1 replaced by phenylalanine) (peptide)
peptide: FIKL
B10: compound 23 (11 with the phenyl replaced by naphthalen-2-yl) (peptide)
chain: [2Nal]IKL
B11: UBC12 peptide 4 (peptide)
peptide: MIKLFSLKQ
B12: UBC12 peptide 2 (peptide 1 without Lys12) (peptide)
peptide: MIKLFSLKQQK
B13: compound 25 (24 with 5-Cl on the benzothiazol-2-yl) (peptide)
chain: [5‑Cl‑benzothiazol‑2‑yl side chain]IKL
modifications: not fully specified; reading uncertain
B14: UBC12 tripeptide (10) (peptide)
peptide: MIK
B15: UBC12 peptide 5 (peptide)
peptide: MIKLFSLK
B16: analog of 11 containing an m-CN substituted phenyl (peptide)
chain: [Phe(3-CN)]IKL
B17: UBC12 peptide 7 (peptide)
peptide: MIKLFS
B18: compound 26 (24 with 6-Cl on the benzothiazol-2-yl) (peptide)
chain: [6‑Cl‑benzothiazol‑2‑yl side chain]IKL
modifications: not fully specified; reading uncertain
B19: UBC12 seven-residue peptide (6) (peptide)
peptide: MIKLFSL
B20: analog of 11 with o-F substitution of the phenyl (peptide)
chain: [Phe(2-F)]IKL
B21: compound 14 (11 with Cl at the meta position of the phenyl ring) (peptide)
chain: [Phe(3-Cl)]IKL

Each binder was assayed against human DCN1 (residues 58–259), N-terminal His6 tag (human, UniProt Q96GG9 58-259) (assay: FP).
human DCN1 (residues 58–259), N-terminal His6 tag, sequence (Q96GG9 58-259): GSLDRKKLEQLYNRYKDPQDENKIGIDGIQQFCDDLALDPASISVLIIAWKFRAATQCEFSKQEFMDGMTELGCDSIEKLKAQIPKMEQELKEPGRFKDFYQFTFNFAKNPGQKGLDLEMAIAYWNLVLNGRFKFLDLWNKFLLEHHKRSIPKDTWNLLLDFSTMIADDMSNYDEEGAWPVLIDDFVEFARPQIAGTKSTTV

Binder | Ki [µM]
B1 | 143
B2 | > 1000
B3 | 386
B4 | 6
B5 | 313
B6 | 71
B7 | 111
B8 | 82
B9 | 41
B10 | 3.8
B11 | 6.5
B12 | 2.4
B13 | 2.5
B14 | > 1000
B15 | 9.2
B16 | > 1000
B17 | 83
B18 | 0.034
B19 | 28
B20 | 125
B21 | 45
